Experimental data: publication PMC10638201, “Application of electrospun chitosan-based nanofibers as immobilization matrix for biomolecules” (Applied Microbiology and Biotechnology, 2023)

Substrate: COc1cc(CO)ccc1O
Experiment: purified protein
Assay type: biochemical, Rhodococcus jostii
Conditions: free EUGO, O2 as co-substrate (air), ambient conditions, 50 mM Glycine·NaOH buffer, pH 8.0, N = 1, called preliminary

B1: eugenol oxidase (EUGO); 6xHis-eugenol-oxidase-StrepTag-II (Rhodococcus jostii RHA1) (protein)
chain: MTRTLPPGVSDERFDAALQRFRDVVGDKWVLSTADELEAFRDPYPVGAAEANLPSAVVSPESTEQVQDIVRIANEYGIPLSPVSTGKNNGYGGAAPRLSGSVIVKTGERMNRILEVNEKYGYALLEPGVTYFDLYEYLQSHDSGLMLDCPDLGWGSVVGNTLDRGVGYTPYGDHFMWQTGLEVVLPQGEVMRTGMGALPGSDAWQLFPYGFGPFPDGMFTQSNLGIVTKMGIALMQRPPASQSFLITFDKEEDLEQIVDIMLPLRINMAPLQNVPVLRNIFMDAAAVSKRTEWFDGDGPMPAEAIERMKKDLDLGFWNFYGTLYGPPPLIEMYYGMIKEAFGKIPGARFFTHEERDDRGGHVLQDRHKINNGIPSLDELQLLDWVPNGGHIGFSPVSAPDGREAMKQFEMVRNRANEYNKDYAAQFIIGLREMHHVCLFIYDTAIPEAREEILQMTKVLVREAAEAGYGEYRTHNALMDDVMATFNWGDGALLKFHEKIKDALDPNGIIAPGKSGIWSQRFRGQNL
notes: N-terminal His6 tag and C-terminal Strep-tag II, tags kept; gene from vector pEUGOA cloned into pET-28a(+) (pET-28-eugo-STII); E. coli BL21 (DE3) gold; Ni Sepharose purified; dimer, theoretical 124 kDa
What does the source list for B1?
Km: 80 ± 20 µM; kcat: 5 ± 1 s⁻¹
